From article PMC7039123

Experiments:
[1] = molecular target: R17^GAG2 (333KGRRK337 to 333DGEED337) (rodent herpesvirus Peru (RHVP)); test: SPR
[2] = molecular target: R17 266NAGAQ270 mutant (rodent herpesvirus Peru (RHVP)); test: SPR

“murine CCL2^K47N (from UniProt P10148 24-148) (ligand)” gave a t1/2 [1] of 5.5 s.

With “murine CCL2^L46R (from UniProt P10148 24-148) (ligand)” the fold longer half life than wild type CCL2 [1] was 2 fold.

“murine CCL2^L46RK47N (from UniProt P10148 24-148) (ligand)” showed a t1/2 [1] of over 900 s.

B1: murine CCL3 (ligand)
chain: APYGADTPTACCFSYSRKIPRQFIVDYFETSSLCSQPGVIFLTKRNRQICADSKETWVQEYITDLELNA
Molecule B1 has a fold faster kinetic off-rate than with wild type R17 [2] of over 100 fold and a t1/2 [2] of 11 s.
